Data on 14 molecules can be found in US20220409742A1, “NUCLEIC ACID NANOPARTICLES, PHARMACEUTICAL COMPOSITION COMPRISING SAME, DRUG COMPRISING DOXORUBICIN AND PREPARATION METHOD THEREFOR” (BAI YAO ZHI DA (BEIJING) NANOBIO TECHNOLOGY CO., LTD., priority 2018, published 2022).

Changes are numbered by the printed parent chain. “And” between values parts separate entries of the source, which are not always exact repeats. Identical values can stand only once. {Biotin} = biotin attached at the strand end

Series [1] is described as follows: Doxorubicin loading rate, chemical loading (paraformaldehyde covalent linkage). Conditions: doxorubicin molecules per nucleic acid nanoparticle carrier. The class given is physicochemical. As for the experimental part: (1) Accurately weighing the doxorubicin (5.0 mg, 8.6 μmol, 40 eq.) and dissolving in the DEPC treated water (1.8 mL) and the PBS buffer solution (2.1 mL), adding 4% paraformaldehyde aqueous solution (0.4 mL) under cooling of an ice-water bath and uniformly mixing, enabling the mixed solution to be totally uniformly mixed with the RNA nanoparticles (215 nmol), and reacting for 72 hours at 4 DEG C. under a dark condition.
(2) Taking 10 μL of reaction solution and diluting for 10 times, using 50 μM of the doxorubicin aqueous solution and 310 ng/μL of the RNA nanoparticles as controls, and performing HPLC analysis according to equal volume injection. According to a peak area ratio of each component, it may be adjusted that reaction conversion is basically completed.
(3) Extracting the reaction solution by the chloroform (10 mL×3), and then adding 10 times of the anhydrous ethanol in volume, after uniformly mixing, keeping at 4 DEG C. in the dark and enabling a product to be adequately precipitated (4 hours). Centrifuging, transferring supernatant, and washing the solid product again by the ethanol, evaporating a solvent under reduced pressure and lower temperature, to obtain a loading product which is a dark red solid.
(5) Loading rate calculation:
1. preparing a known concentration of doxorubicin-PBS standard solution: 2 μM, 4 μM, 6 μM, 8 μM, and 10 μM, 100 μL each;
2. enabling the doxorubicin-loaded product to be dissolved in 100 μL of the PBS;
3. putting the standard solution and the doxorubicin-loaded product into a PCR plate, heating at 85 DEG C. for 5 min, and then cooling to the room temperature;
4. measuring an absorbance of the doxorubicin at 492 nm by using a microplate reader, drawing a standard curve (as shown in FIG. 11), and calculating the molar concentration of the doxorubicin in the loaded product;
5. measuring an absorbance of RNA at 260 nm by using a spectrophotometer, to obtain the mass concentration of the doxorubicin-loaded product contained in each sample; and
6. according to the doxorubicin molar concentration and the mass concentration of the doxorubicin-loaded product obtained by measuring, calculating a loading rate.
According to the chemical loading method (unless otherwise specified, the method is the same as that of Embodiment 5) of Embodiment 5, the above DNA nanoparticles in Embodiment 1, the RNA nanoparticles formed by the self-assembly of the R-1, R-2, R-3, R-4, R-5, R-6 and R-7 in Embodiment 2, and the DNA nanoparticles formed by the self-assembly of the D-2, D-6 and D-7 in Embodiment 4 are respectively used as doxorubicin loading carriers, doxorubicin loading rates measured are respectively as follows:
According to the chemical loading method (unless otherwise specified, the method is the same as that of Embodiment 5) of Embodiment 5, the RNA nanoparticles formed by the self-assembly of the previous R-15, R-16, R-17, R-18, R-19, R-20 and R-21 in Embodiment 11, and the DNA nanoparticles formed by the self-assembly of the D-8, D-9, D-10, D-11, D-12, D-13 and D-14 in Embodiment 12 are respectively used as doxorubicin loading carriers, doxorubicin loading rates measured are respectively as follows: […]

The nature of series [2]: Particle size measurement (DLS hydrodynamic size). The class given is physicochemical. The text has this: 1. Preparing a potential sample (conventional-sequence DNA self-assembly product D-7) and putting into a sample pool, opening a sample pool cover of an instrument, and placing the instrument;
2. opening software, and clicking a menu, so a manual measurement parameter setting dialog box appears;
3. setting a software detection parameter; and then
4. clicking Ok to complete the settings, while a measurement dialog box appears, clicking Start to start, a DLS measurement value result of a hydrodynamic size of the self-assembly product D-7 is as follows:
1. Preparing a potential sample (7 groups of extension fragment deformation+core short-sequence RNA) and putting into a sample pool, opening a sample pool cover of an instrument, and placing the instrument;
4. clicking Ok to complete the settings, while a measurement dialog box appears, clicking Start to start, a DLS measurement value result of a hydrodynamic size of the 7 groups of extension fragment deformation+core short-sequence RNA is as follows:
(1) Preparing a potential sample (7 groups of extension fragment deformation+core short-sequence DNA) and putting into a sample pool, opening a sample pool cover of an instrument, and placing the instrument;
(2) opening software, and clicking a menu, so a manual measurement parameter setting dialog box appears;
(3) setting a software detection parameter; and then
(4) clicking Ok to complete the settings, while a measurement dialog box appears, clicking Start to start, a DLS measurement value result of a hydrodynamic size of the 7 groups of extension fragment deformation+core short-sequence DNA is as follows: […]

In turn, “R-1: short-sequence RNA nanoparticle, strands SEQ ID NO:55-57, c/u 2′F modification (chain 1 GGAGCGUUGG; chain 2 CCUUCGCCGY; chain 3 CGGCCAUAGCCC; 2'-F C/U, chemistry not fully specified)” showed a doxorubicin loading rate in series [1] of 3.5.
Same read-out and setting: the value for “R-2: short-sequence RNA nanoparticle, strands SEQ ID NO:58-60, c/u 2′F modification (chain 1 GCAGCGUUCG; chain 2 CGUUCGCCGY; chain 3 CGGCCAUAGCGC; 2'-F C/U, chemistry not fully specified)” was 2.4; that for “R-3: short-sequence RNA nanoparticle, strands SEQ ID NO:61-63, c/u 2′F modification (chain 1 CGAGCGUUGC; chain 2 GCUUCGCCGY; chain 3 CGGCCAUAGCCG; 2'-F C/U, chemistry not fully specified)” was 4.8.
Same read-out and setting: in the case of “R-4: short-sequence RNA nanoparticle, strands SEQ ID NO:64-66, c/u 2′F modification (chain 1 GGAGCGUUGG; chain 2 CCUUCGGGGY; chain 3 CCCCCAUAGCCC; 2'-F C/U, chemistry not fully specified)” it was 3.5; in that of “R-5: short-sequence RNA nanoparticle, strands SEQ ID NO:67-69, c/u 2′F modification (chain 1 GCAGCGUUCG; chain 2 CGUUCGGCGY; chain 3 CGCCCAUAGCGC; 2'-F C/U, chemistry not fully specified)”, 12.5; in that of “R-6: short-sequence RNA nanoparticle, strands SEQ ID NO:70-72, c/u 2′F modification (chain 1 GCAGCGUUCG; chain 2 CGUUCGGCCY; chain 3 GGCCCAUAGCGC; 2'-F C/U, chemistry not fully specified)”, 2.8.

B1: D-6: conventional-sequence DNA nanoparticle, SEQ ID NO:114-116, without target head, thio modification (nucleic acid)
chain 1: CGCGCGCCCAGCAGCGTTCGGGGCGCCGC
chain 2: GCGGCGCCCCGTTCGGCCGGCAGGCGGC
chain 3: GCCGCCAGCCGGCCCATAGCGCTGGGCGCGCG
modifications: DNA, backbone and methylation of C not given here; three-strand DNA nanoparticle, phosphorothioate modification
Take B1: in series [1], the doxorubicin loading rate amounted to 11.

B2: D-2: conventional-sequence DNA nanoparticle, SEQ ID NO:102-104, EGFRapt target head, thio modification (nucleic acid)
chain 1: CGCGCGCCCAGCAGCGTTCGCGGGCGGCGGCCTTAGTAACGTGCTTTGATGTCGATTCGACAGGAGGC
chain 2: CGCCGCCCGCGTTCGCCGCCAGCCGCC
chain 3: GGCGGCAGGCGGCCATAGCGCTGGGCGCGCG
modifications: DNA, backbone and methylation of C not given here; DNA nanoparticle with EGFR aptamer head, phosphorothioate modification
Turning to B2, the doxorubicin loading rate in series [1] was determined as 14.

B3: R-15: extension fragment deformation+core short-sequence RNA nanoparticle, SEQ ID NO:120-122, 3′ biotin on a-strand, 2′F (nucleic acid)
chain 1: GCGGCGAGCGGCGAGGAGCGUUGGGGCCGGAGGCCGG
chain 2: CCGGCCUCCGGCCCCUUCGGGGCCAGCCGCC
chain 3: GGCGGCAGGCCCCCAUAGCCCUCGCCGCUCGCCGC
modifications: chain 1: 3' {Biotin}, sugars by position and backbone not given here; chain 2: chemistry not given here; chain 3: chemistry not given here; three-strand RNA nanoparticle, 2'-F modified
Turning to B3, the Mean particle size in series [2] is recorded as 6.808 nm.

B4: R-16: extension fragment deformation+core short-sequence RNA nanoparticle, SEQ ID NO:123-125, 3′ biotin on a-strand, 2′F (nucleic acid)
chain 1: B3 chain 1 with G16C, G23C
chain 2: B3 chain 2 with C15G, G20C, G21C
chain 3: B3 chain 3 with C11G, C12G, C20G
modifications: chain 1: 3' {Biotin}, sugars by position and backbone not given here; chain 2: chemistry not given here; chain 3: chemistry not given here; three-strand RNA nanoparticle, 2'-F modified
Regarding B4, the Mean particle size in series [2] was found to be 6.978 nm.

B5: R-19: extension fragment deformation+core short-sequence RNA nanoparticle, SEQ ID NO:132-134, 3′ biotin on a-strand, 2′F (nucleic acid)
chain 1: B3 chain 1 with G16C, G23C
chain 2: B3 chain 2 with C15G, G21C, G22C
chain 3: B3 chain 3 with C10G, C11G, C20G
modifications: chain 1: 3' {Biotin}, sugars by position and backbone not given here; chain 2: chemistry not given here; chain 3: chemistry not given here; three-strand RNA nanoparticle, 2'-F modified
Take B5: the Mean particle size in series [2] was 6.936 nm.

B6: R-18: extension fragment deformation+core short-sequence RNA nanoparticle, SEQ ID NO:129-131, 3′ biotin on a-strand, 2′F (nucleic acid)
chain 1: B3 chain 1 with G16C, G23C
chain 2: B3 chain 2 with C15G, G21C
chain 3: B3 chain 3 with C11G, C20G
modifications: chain 1: 3' {Biotin}, sugars by position and backbone not given here; chain 2: chemistry not given here; chain 3: chemistry not given here; three-strand RNA nanoparticle, 2'-F modified
Regarding B6, in series [2], the Mean particle size turned out to be 7.520 nm.

B7: R-17: extension fragment deformation+core short-sequence RNA nanoparticle, SEQ ID NO:126-128, 3′ biotin on a-strand, 2′F (nucleic acid)
chain 1: B3 chain 1
chain 2: B3 chain 2 with G20C, G21C
chain 3: B3 chain 3 with C11G, C12G
modifications: chain 1: 3' {Biotin}, sugars by position and backbone not given here; chain 2: chemistry not given here; chain 3: chemistry not given here; three-strand RNA nanoparticle, 2'-F modified
B7 showed a Mean particle size in series [2] of 7.592 nm.

B8: D-7: conventional-sequence DNA nanoparticle, SEQ ID NO:117-119, without target head, thio modification (nucleic acid)
chain 1: CGCGCGCCCACGAGCGTTGCGGGCGCCGC
chain 2: GCGGCGCCCGCTTCGGCGGCAGGCGGC
chain 3: GCCGCCAGCCGCCCATAGCCGTGGGCGCGCG
modifications: DNA, backbone and methylation of C not given here; three-strand DNA nanoparticle, phosphorothioate modification
With B8, the “Particle size Z-Ave, single detection” value in series [2] (detection times 1-3, listed as 1) was 10.76 nm·days and 13.9 nm·days and 10.36 nm·days. Also, in series [2] (summary of 3 detections), the “Particle size Z-Ave, Experiment result” value is 12.33 d.nm(±1.57 d.nm). Moreover, the doxorubicin loading rate in series [1] stood at 10.
